Experiment [1] deals with SpyTag-noro-VLP (norovirus-like particle of the capsid protein VP1 with a C-terminally fused SpyTag) (norovirus (genotype not stated)). The experiment is described as follows: covalent SpyCatcher/SpyTag conjugation read by SDS-PAGE densitometry; SpyCatcher-P domain conjugated on SpyTag-noro-VLP as in the first experiment; nonconjugated antigen removed by size-exclusion chromatography (HiPrep 16/60 Sephacryl S-500 HR); second immunization experiment. In general terms: SEC sorts molecules by how far they enter the pores of the column.

Experiment [2] has the same target. Put plainly: covalent SpyCatcher/SpyTag conjugation read by SDS-PAGE densitometry; SpyCatcher-antigen mixed with SpyTag-noro-VLP at 2:1 (P domain) or 4:1 (peptides) molar ratio, about 40 hours at +4 °C; unreacted SpyCatcher-antigen removed by dialysis through a 1000 kDa cut-off membrane; first immunization experiment.

For the substance “SpyCatcher-P domain fusion (furin P domain, residues 444-576) (from UniProt P09958 444-576)”, the conjugation efficiency (%) worked out at 5% in experiment [1] and 20% in experiment [2].
